This is an account of results in patent publication US20260069676A1 (University of California, published 2026).

In this test the target is T1, MHC I (H2Kb) on dendritic cells (;mouse, UniProt P01887 21-119; P01901 22-369).
T1 construct: whole, on cells; also called MHC I molecules of DC2.4 cells
T1 sequence (MHC heavy): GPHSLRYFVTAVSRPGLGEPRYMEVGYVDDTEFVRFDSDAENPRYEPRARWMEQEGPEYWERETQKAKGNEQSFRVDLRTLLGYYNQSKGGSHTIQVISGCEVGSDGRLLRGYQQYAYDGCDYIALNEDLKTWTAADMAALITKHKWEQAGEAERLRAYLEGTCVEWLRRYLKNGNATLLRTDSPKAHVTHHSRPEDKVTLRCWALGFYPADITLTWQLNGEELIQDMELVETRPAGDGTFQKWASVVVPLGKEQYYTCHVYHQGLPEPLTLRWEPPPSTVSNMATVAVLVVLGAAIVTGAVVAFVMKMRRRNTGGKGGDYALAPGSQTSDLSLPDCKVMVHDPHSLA
T1 sequence (b2m): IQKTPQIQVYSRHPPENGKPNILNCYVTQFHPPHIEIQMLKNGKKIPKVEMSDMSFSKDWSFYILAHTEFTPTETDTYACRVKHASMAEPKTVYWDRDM
Description: competition with pre-loaded SIINFEKL on dendritic cells, flow cytometry with SIINFEKL/H2Kb-specific antibody.

B1: LTDEMIAQY peptide (MHC I peptide, SARS-CoV-2 spike T cell epitope) (peptide)
peptide: LTDEMIAQY
notes: Synthetic peptide (Anaspec), derived from the SARS-CoV-2 spike protein; also called LTD peptide (MHC I); LTD-MHC I peptide
In the case of B1, the binding result is recorded as “binds”.
